Source: US8030025B2
“And” between values parts separate entries of the source, which are not always exact repeats. Equal entries are not always repeated.

Experiments:
[1] = target: biotinylated human angiopoietin 1 (human) (UniProt Q15389); assay: HTRF neutralization; biotin-hAng1 vs huTie-2-Fc-APC
[2] = target: biotinylated human angiopoietin 2 (human) (UniProt O15123); assay: HTRF neutralization; biotin-hAng2 vs huTie-2-Fc-APC
[3] = target: Cyno Ang1 (cynomolgus monkey); assay: neutralization ELISA; coated angiopoietin vs Tie2-Fc
[4] = target: Cyno Ang2 (cynomolgus monkey); assay: as above
[5] = target: Human Ang1 (human) (UniProt Q15389); assay: as above
[6] = target: Human Ang2 (human) (UniProt O15123); assay: as above
[7] = target: Murine Ang1 (mouse) (UniProt O08538); assay: as above
[8] = target: Murine Ang2 (mouse) (UniProt O35608); assay: as above
[9] = target: Rabbit Ang1 (rabbit) (UniProt G1SK98); assay: as above
[10] = target: Rabbit Ang2 (rabbit) (UniProt G1T9B3); assay: as above
[11] = target: biotinylated human angiopoietin 1 (human) (UniProt Q15389); assay: angiopoietin:Tie2 neutralization HTRF; biotin-hAng1 vs Tie2-APC
[12] = target: biotinylated human angiopoietin 2 (human) (UniProt O15123); assay: angiopoietin:Tie2 neutralization HTRF; biotin-hAng2 vs Tie2-APC
[13] = target: Cyno Ang1 (cynomolgus monkey); assay: angiopoietin:Tie2 neutralization ELISA; coated angiopoietin vs hTie2-Fc
[14] = target: Cyno Ang2 (cynomolgus monkey); assay: as above
[15] = target: Human Ang1 (human) (UniProt Q15389); assay: as above
[16] = target: Human Ang2 (human) (UniProt O15123); assay: as above
[17] = target: Murine Ang1 (mouse) (UniProt O08538); assay: as above
[18] = target: Murine Ang2 (mouse) (UniProt O35608); assay: as above
[19] = target: Rabbit Ang1 (rabbit) (UniProt G1SK98); assay: as above
[20] = target: Tie2 in mouse lung endothelium (mouse) (UniProt Q02858)

AMG 386 (Fc fusion)
IC50 [1]: 2.6 nM and 3.9 nM | IC90 [1]: 106 nM and 278 nM | IC50 [2]: 0.03 nM | IC90 [2]: 0.13 nM and 0.15 nM | IC50 [3]: 2.9 nM | IC50 [4]: 0.17 nM | IC50 [5]: 1.2 nM | IC50 [6]: 0.12 nM | IC50 [7]: 2.7 nM | IC50 [8]: 0.1 nM | IC50 [9]: 4.3 nM | IC50 [10]: 0.1 nM | IC50 [11]: 6.2 nM | IC50 [12]: 0.029 nM

Fc
IC50 [11]: > 10000 nM | IC50 [12]: > 10000 nM | IC50 [13]: > 10000 nM | IC50 [14]: > 10000 nM | IC50 [15]: > 10000 nM | IC50 [16]: > 10000 nM | IC50 [17]: > 10000 nM | IC50 [18]: > 10000 nM | IC50 [19]: > 10000 nM

L1-7(N) (Fc fusion)
IC50 [11]: > 10000 nM | IC50 [12]: 0.064 nM

recombinant Ang1 (R&D Systems Inc.) (ligand)
Tie2 phosphorylation in mouse lung endothelium [20]: 5 fold
